Assay results reported in the supplement of paper PMC10567573.

B1: ZBED3 (parent)
chain: GPGFHAGTSALWRHLRSAHRRELE
B2: KLHL14 (parent)
chain: CAVLDDSIYLVGGYSWSMGAYKSS

Variants of: B1
Experiment: protein stability index of a GFP-peptide fusion (GPS, HEK-293T) (PSI 1-6); higher = more stable
Details: c terminus: a fixed tail appended
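Note: lentivirally expressed fusions sorted by FACS into six bins by GFP to DsRed ratio, PSI derived from sequencing read proportions per bin multiplied by bin number.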

Protein stability index of substitutions, site by site:
A10: P 2.28, G 2.67, L 1.88, K 2, C 2.32, R 3.4, Q 2.43, S 2.52, F 2.33, N 2.67, I 1.85, H 2.63, M 2.02, D 3.22, E 4.86, T 3.08
G3: A 3.22, Q 2.45, M 3.16, R 3.96, P 3.38, Y 3.36, N 3.56, V 3.1, H 3.25, W 1.96, C 3.23, L 3.26, D 3.13, I 2.5, F 1.74, S 2.9, K 3.26, T 3.75, E 3.67
S9: Q 2.96, C 2, F 2.23, Y 3.23, I 1.74, N 2.68, E 3.25, M 2.44, L 3.28, A 2.11, R 3.03, T 3.06, D 2.99, H 2.53, V 1.92, K 2.68, P 2.08, G 1.71, W 2.05
F4: T 3.75, V 3, N 2.84, W 2.22, A 3.15, E 2.83, Q 4.02, Y 3.37, G 3.01, P 3.59, R 4.36, D 3, L 3.3, S 3.39, H 3.16, K 3.62, C 3.19, M 2.68, I 2.99
G1: T 3.33, H 3.15, S 1.79, R 3.02, D 3.87, N 3.45, Q 3.51, Y 2.1, V 2.9, A 2.7, E 3.11, M 3.18, P 3.04, W 2.7, I 2.76, K 3.07, C 2.65, F 1.96, L 2.52
T8: N 2.91, Y 2.37, H 2.4, V 1.84, M 2.37, D 3.67, C 2.51, G 2.26, A 1.75, E 2.48, F 1.64, S 2.89, P 2.88, Q 1.98, K 2.5, R 2.37, L 2.52, W 2.23, I 2.09
A6: E 3.04, H 2.12, K 2.3, L 2.24, R 3.08, Q 2.59, S 2.14, P 2.77, W 1.82, V 1.85, I 2.06, F 1.83, Y 2.59, D 3.52, C 1.65, N 2, T 2.33, G 2.54, M 2.58
G7: N 2.69, K 2.01, V 2.19, P 2.23, A 2.62, Y 2.68, L 1.45, W 1.52, S 2.73, C 1.75, M 2.35, I 2.31, R 2, E 5.51, D 3.25, Q 2.47, T 2.21
P2: T 3.01, H 3.39, G 3.2, S 2.92, E 3.53, W 2.18, Q 4.32, A 3.48, K 3.06, V 2.77, N 3.5, Y 2.54, I 2.8, C 1.37, M 2.53, D 3.38, L 2.5, F 1.89
H5: Q 3.44, L 2.24, Y 2.89, V 2.75, T 3.16, C 3.46, P 4.37, N 3.06, D 3.69, F 2.88, M 2.82, W 2.76, E 3.63, I 2.15, K 2.67, G 2.62, R 3.02, S 2.95, A 3.33

Variants of: B2
Experiment: as above
Details: c terminus: a fixed tail appended

Protein stability index of substitutions, site by site:
A20: Y 2.9, K 1.11
G19: C 3, N 2.06, H 3.16, P 1.96, Q 1.62
W16: S 2.01
S17: Q 2.79, V 1.96
G12: V 2.65, F 2.23, K 2.13, D 2.39, A 3.1, L 2.9, Q 2.89, Y 1.55, H 2.92, M 2.24
L10: W 3.36, Q 1.23, T 1.96, Y 2.08, M 1.95
Y21: G 1.08, M 2.65, R 2.45, L 2.68, N 2.25, K 2.14, F 3.42
S23: P 1.58, M 2.48, G 1, T 2.72, A 2.92
G13: R 2.08, D 1.98, W 3.56, S 1.95, K 1.51, V 1.27, A 3.61, C 2.36
Y9: W 2.43, N 1.56, R 3.35, Q 1.62, H 2.3, D 2.37, P 2.22
C1: K 2.42, W 2.63, G 2, E 1.3, D 2.42, P 2.28, M 1.5
V11: A 1.94, H 1.88, S 2.21, T 1.83, Y 2.44, R 1.24, L 1.72, P 1.56, N 2.2, E 2.33
S24: Y 3.04, T 3.12, I 3.41, C 2.32, F 2.96, N 2.53
S15: M 4.83, P 2.77, E 1.03, T 2.38, A 3.83, R 1.86, V 3.31, W 2.25, G 2.88
Y14: N 1.53, M 2.42, P 1.91, R 1.74, L 1.86, C 2.15, F 2.66
K22: A 3.59, D 3.84, Q 1.44, L 3.43, C 1.85
A2: W 2.5, D 1.04, H 1.85, G 1.04, N 2.05, F 2.84
V3: E 2.77, D 1.57, N 2.57, P 2.58, W 2.71, F 2.85, G 1.48, H 1.67, Y 1.57
S7: R 1.84, Q 3.47, G 3.23, C 3.58
M18: C 2.26, H 2.5, N 1.46, E 2.53, L 2.48, G 1.68, A 2.89, R 2.11, F 2.48
L4: H 2.12, D 2.19, G 1.55, K 2.18, R 2.33, V 1.79, A 1.36, C 1.78
D6: V 1.97, W 3.66, H 2.9, I 3.34, Q 1.95, P 2.97
I8: R 1.64, M 2.62, T 3.78, S 1.73, P 1.93, F 2.55
D5: W 3.27, V 2.29, E 2.7, Y 1.54, M 4.24, S 2
